Our source for the koff, kon and Kd values is article PMC3407074.

The term koff denotes a measure of how fast the partners let go of each other. Higher therefore signals fast dissociation. For orientation: kon means the second-order rate constant of association. A word on the Kd: it is a measure of binding affinity in units of concentration.

The target of assay [1] is recP12-Cd4d3/4-bio (Plasmodium falciparum). Nature of the assay: SPR; BIAcore T100, 37°C; recP12 captured on a streptavidin chip; two-fold dilutions from 3.6 µM recP41-Cd4d3/4-6H at 100 µL/min; kinetic analysis, 1:1 binding model. (SPR reads the build-up and loss of mass on a sensor chip optically.)
Assay [2] shares this target. The assay is described as follows: SPR; BIAcore T100, 37°C; recP12-Cd4d3/4-bio captured on a streptavidin chip, biotinylated Cd4d3/4 as reference; serial dilutions of recP41-Cd4d3/4-6H at 10 µL/min; equilibrium analysis, Langmuir isotherm.

In assay [1], recP41-Cd4d3/4-6H (domain or fragment) gave a koff of 0.0212 s⁻¹ and a kon of 134000 M⁻¹ s⁻¹. In assay [2], this substance returned a Kd of 310 nM.
